Results reported in patent US20110158938A1.

Target: IL-15Rα expressed by TF-1 cells (human) (UniProt Q13261)
Experiment: cell-based or functional assay

Chain of UniProt Q13261 (Q13261 31-267): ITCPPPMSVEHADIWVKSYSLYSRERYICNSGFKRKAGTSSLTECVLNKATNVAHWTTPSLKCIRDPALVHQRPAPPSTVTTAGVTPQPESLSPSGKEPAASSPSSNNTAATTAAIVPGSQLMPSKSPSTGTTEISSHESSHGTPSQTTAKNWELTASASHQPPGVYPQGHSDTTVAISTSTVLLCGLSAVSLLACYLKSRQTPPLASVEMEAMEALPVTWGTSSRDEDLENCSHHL

Q: With “FLAG-IL-15 L47D (from UniProt P40933 49-162) (ligand)” as the substance, how does the EC50 (pM), TF-1β proliferation read?
A: > 60 pM

Q: And the Maximal induction (% WT), TF-1β proliferation?
A: 0 % WT

Q: What about the Relative activity (% WT), TF-1β proliferation of the same substance?
A: < 10 % WT

Q: With “FLAG-IL-15 L44D (from UniProt P40933 49-162) (ligand)” as the substance, how does the EC50 (pM), TF-1β proliferation read?
A: > 20 pM

Q: What about the Maximal induction (% WT), TF-1β proliferation of the same substance?
A: 0 % WT

Q: And the Relative activity (% WT), TF-1β proliferation?
A: < 30 % WT
